According to patent US20180282403A1, “AGENTS FOR REDUCING THE ACTIVITY OF GDF15” (GENAGON THERAPEUTICS AB, priority 2015, published 2018):

Experiments:
Type in all cases: cell-based
CLPTM1 [1] = target: T1, CLPTM1 (Homo sapiens, UniProt O96005); assay: Detection of phosphorylated GSK3b (9/21) in NK-92 cells (in situ PLA, Western blot); details: GDF15 in the presence of control antibody, FIG. 16
T1 construct: endogenous in cells; host or cells: NK-92 cells
T1 sequence (O96005 1-669): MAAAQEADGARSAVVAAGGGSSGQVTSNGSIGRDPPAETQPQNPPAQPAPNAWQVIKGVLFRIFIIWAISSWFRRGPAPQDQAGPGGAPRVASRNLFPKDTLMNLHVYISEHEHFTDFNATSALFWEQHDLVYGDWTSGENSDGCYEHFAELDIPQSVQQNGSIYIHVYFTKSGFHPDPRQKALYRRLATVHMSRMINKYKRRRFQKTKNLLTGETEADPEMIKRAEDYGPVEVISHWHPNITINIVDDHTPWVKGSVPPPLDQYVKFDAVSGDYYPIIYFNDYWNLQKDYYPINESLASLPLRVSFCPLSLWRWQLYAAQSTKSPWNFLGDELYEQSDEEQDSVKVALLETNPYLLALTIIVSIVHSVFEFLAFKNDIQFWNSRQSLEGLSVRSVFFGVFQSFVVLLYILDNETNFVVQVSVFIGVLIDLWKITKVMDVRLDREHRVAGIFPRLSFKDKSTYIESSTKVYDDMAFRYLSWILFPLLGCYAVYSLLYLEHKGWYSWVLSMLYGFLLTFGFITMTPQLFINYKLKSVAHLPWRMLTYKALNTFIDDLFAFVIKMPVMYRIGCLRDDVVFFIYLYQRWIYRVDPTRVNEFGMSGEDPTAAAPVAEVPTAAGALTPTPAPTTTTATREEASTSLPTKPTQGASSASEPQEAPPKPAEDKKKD
Method: A-C) In situ PLA detection of phosphorylated GSK3b (GSK3b-p(9/21) using a pair of proximity probes A) Negative control cells with no added GDF15. B) Cells after exposure to GDF15 and control antibody. C) Cells after exposure to GDF15 following pre-incubation with a monoclonal antibody targeting the extracellular domain of CLPTM1 D) Western Blot indicating the levels of phosphorylated GSKb (p-GSKb). Lane 1—No GDF15. Lane 2—GDF15 stim+ ctrl ab. Lane 3 GDF15 stim+ mAb mouse (antibody used in in situ PLA experiment).
The effect of antibodies binding CLPTM1 on inhibiting GDF15 induced downstream signalling through the TGFB heterotetrameric complex was assessed by detecting phosphorylated GSK3b-pGSK3b(9/21) in an in situ PLA assay. Phosphorylation of GSK3b is known to cause immunosuppressive effects i.e. suppress immune cell function.

CLPTM1 [2] = target: T1, CLPTM1; assay: Detection of NKG2D in NK-92 cells after extended GDF15 stimulation; details: overnight GDF15 stimulation, FIG. 21A
Description: Based upon literature, the expression of CLPTM1 in immune cells such as CD8+T-lymphocytes and NK-92 cells, and the GDF15 induced proximity of CLPTM1 to TGFBRI-TGFBRII (through which TGFB1 signals), we investigated whether blockade of CLPTM1 by antibodies could affect the levels of the immune effector NKG2D in NK-92 cells that had been subjected to extended stimulation with GDF15. […] The decrease in NKG2D was reversed in NK-92 cells that had been pre-treated with a binding agent capable of binding to CLPTM1 (an antibody) prior to GDF15 stimulation (FIG. 21B). […] We propose that this may increase their cytotoxicity.

QRFPR [3] = target: T2, QRFPR (Homo sapiens, UniProt Q96P65); assay: QRFPR levels after prolonged GDF15 stimulation with or without proteasome inhibition; details: GDF15 18 hrs, absence of MG132; FIG. 6B
T2 construct: endogenous in cells
T2 sequence (Q96P65 1-431): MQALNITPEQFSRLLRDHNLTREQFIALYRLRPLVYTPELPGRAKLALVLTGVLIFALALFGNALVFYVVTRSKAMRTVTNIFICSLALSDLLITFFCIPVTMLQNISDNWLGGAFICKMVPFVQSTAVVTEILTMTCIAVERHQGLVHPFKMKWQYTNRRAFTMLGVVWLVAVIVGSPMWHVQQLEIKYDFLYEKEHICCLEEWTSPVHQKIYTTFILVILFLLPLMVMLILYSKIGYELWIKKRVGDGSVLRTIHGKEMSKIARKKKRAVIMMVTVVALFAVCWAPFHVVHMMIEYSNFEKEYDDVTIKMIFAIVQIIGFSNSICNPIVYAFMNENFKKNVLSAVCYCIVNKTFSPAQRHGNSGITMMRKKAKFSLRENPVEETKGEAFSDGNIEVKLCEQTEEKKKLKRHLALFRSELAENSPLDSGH
Method: This effect is not seen in cells which are treated with MG132 (FIG. 6D).

QRFPR [4] = target: T2, QRFPR; assay: In situ PLA detection of ACTRIIB-QRFPR proximity in MCF7 cells; details: serum-starved MCF7 cells, GDF15 20 minutes; FIG. 3A-B
Method: MCF7 cells were stimulated with GDF15 (GDF15 from isolated mammalian source or recombinant derived from E. coli purchased from Abcam and Biovision). An assay was developed for monitoring the activity of GDF15 and to investigate the dynamics of receptor(s) such as QRFPR modulation by the ligand.
Serum-starved MCF7 cells were treated with GDF15, and an in situ PLA detection assay was developed to detect the interaction between ACTRIIB and QRFPR using antibodies from two different species, thus allowing the use of Duolink secondary detection reagents. The presence of the QRFPR-ACTRIIB complex was detected in the absence of GDF15 (see FIG. 3A, indicated by arrows).

QRFPR [5] = target: T2, QRFPR; assay: In situ PLA detection of EEA1-QRFPR proximity; details: GDF15 5 min; FIG. 3C-D
Description: […] (EEA1) is a marker for rapid endosome formation, and an assay was developed to detect the proximity of EEA1 and QRFPR. In the absence of GDF15, no signal was obtained (FIG. 3C).

QRFPR [6] = target: T2, QRFPR; assay: Western blot of QRFPR positive exosomes from conditioned medium of MCF-7 cells; details: MCF-7 cells exposed to GDF15 vs not exposed; FIG. 1B
Method: Conditioned cell culture media were sequentially centrifuged for 5 min at 3,000 x g to pellet the cells and then at 10,000×g for 10 min to further remove cells and cell debris. The supernatant was then filtered through a 0.45 μm filter and then finally pelleted at 100,000×g for 2 h at 4° c. Pelleted exosomes were resuspended in PBS and protease inhibitor (complete mini, Roche) was added. The samples were then prepared for further analyses as described elsewhere.
Material from the ultracentrifuged pellet was separated on a 12.5% SDS-PAGE gel (Biorad) at 150 v for 80 min, wet transferred to a Immobilon K membrane, blocked with 5% BSA for 1 h RT, and incubated with the corresponding QRFPR antibodies o/n at +4 with mild agitation. The membranes were washed with TBST, and the corresponding secondary antibodies, conjugated to horse radish peroxidase, were applied for 1 hr RT, the membrane washed with TBST and developed using an ECL detection reagent (FIG. 1B).

## GDF15: Growth and differentiation factor 15, from mammalian source or recombinant from E. coli (Abcam, Biovision)
CLPTM1 [1]
  9/21 phosphorylation of GSK3b: induces 9/21 phosphorylation of GSK3b
CLPTM1 [2]
  levels of detectable NKG2D: low levels of detectable NKG2D
QRFPR [3]
  levels of QRFPR: dramatically reduced the levels of QRFPR
QRFPR [4]
  ACTRIIB-QRFPR in situ PLA signal: reduced by GDF15 treatment
QRFPR [5]
  EEA1-QRFPR proximity (RCA products): increase the number of RCA products
QRFPR [6]
  QRFPR in exosomes from conditioned medium: higher levels of QRFPR in conditioned medium
